T1: human TROP2 (antigen of panning and clone screening) (human, UniProt P09758 27-274, limits assumed)
T1 construct: also called human TROP2-His protein; TROP2-expressing CHOK1 cells
T1 sequence (looked up): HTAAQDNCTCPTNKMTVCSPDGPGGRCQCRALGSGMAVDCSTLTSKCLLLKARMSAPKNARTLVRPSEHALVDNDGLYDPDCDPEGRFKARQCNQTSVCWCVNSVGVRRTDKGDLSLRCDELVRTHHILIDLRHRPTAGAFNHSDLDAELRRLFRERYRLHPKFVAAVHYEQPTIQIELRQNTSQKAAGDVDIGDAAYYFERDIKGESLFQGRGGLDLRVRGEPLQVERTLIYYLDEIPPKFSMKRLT

T2: recombinant human TROP2 protein (human, UniProt P09758 27-274)
T2 chain: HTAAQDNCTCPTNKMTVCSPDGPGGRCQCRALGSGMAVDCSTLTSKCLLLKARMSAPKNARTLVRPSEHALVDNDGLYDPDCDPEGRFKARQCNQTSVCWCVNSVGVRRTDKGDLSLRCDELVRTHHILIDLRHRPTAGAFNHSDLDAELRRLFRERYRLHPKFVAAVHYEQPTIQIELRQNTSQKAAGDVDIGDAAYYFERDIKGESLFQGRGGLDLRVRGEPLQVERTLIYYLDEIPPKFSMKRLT


target: T1, human TROP2 (antigen of panning and …); experiment: positive phage clones from panning on human TROP2-His protein or on TROP2-expressing CHOK1 cells, ELISA
Source text: After confirming successful immunization with TROP2 protein, PBMC was isolated and used for construction of a phage display library with the size of 2.42×10⁹ cfu. TROP2 VHH binders were isolated from the phage display library using solid phase panning on human TROP2-His protein and cell-based panning on the engineered, TROP2-expressing CHOK1 cells in two parallel discovery campaigns. […] Stringency was increased during successive rounds by decreasing antigen concentration, increasing the number and duration of washes, and/or changing the duration of selections. The positively identified phages were diluted and spread on a petri dish to grow single colonies. Individual phage clones were selected and amplified. […] After three rounds of screening on TROP2 CHOK1 cells, a total of 384 clones were selected, of which 163 clones were TROP2-specific as tested by ELISA. After sequencing the positive clones, 9 unique sequences were obtained based on amino acid sequences. In combination, a total of 20 unique sequences were identified.

| Binder | binding result |
| --- | --- |
| anti-TROP2 #TP6 VHH (VHH) VHH: QLQLVESGGGLVQPGGSLRLSCAASGTLDYWTVGWFRQAPGKEREGVSCISSSDSSTYYADSVKGRFTISRDNAKNTVYLQMNSLKPEDTAVYYCAAGSLGYCSRSTPQYEYDFWGQGTQVTVSS | binds |
| anti-TROP2 #TP17 VHH (VHH) VHH: EVQLVESGGGMVQPGGSLRLSCAFSGLTFSNYAMTWYRQAPGKERELVAGTPSPGGTTTYADSVKGRFTISRDNAEDTVYLQMNSLKPEDTAVYYCHARWMWPSDNAGMGYWGKGTLVTVSS | binds |
| anti-TROP2 #TP12 VHH (VHH) VHH: QVQLVESGGGLVQPGGSLRLSCAASRFTLDYYAIGWIRQAPGKEREGVSCISSSGGSTNYADSVKGRFTISRDNAKNTVYLQMNSLKPEDTGVYYCAATTYACSGYVPRAYEYDYWGQGTQVTVSS | binds |
| anti-TROP2 #TP20 VHH (VHH) VHH: EVQVVESGGGLVQPGGSLRLSCAASGNIKSTAVMGWHRQAPGKEREWVAIITTGEDRFSGDRLQYADSVKDRFTISRDNAKNTVYLQMNSLKPEDTAVYYCNVDVLYMADGRYARSEFWGQGTQVTVSS | binds |
| anti-TROP2 #TP16 VHH (VHH) VHH: QVQLVESGGGLVQPGGSLRLSCAASGFAFSFYVMTWYRQAPGKQREQVAAITSYGGANYADSVKGRFTISRDNAKNTVYLQMNALTSEDTAVYSCNAHLGPYDYWGQGTQVTVSS | binds |
| anti-TROP2 #TP1 VHH (VHH) VHH: EVQVVESGGGLAQPGGSLRLSCAASGFWFSTYAMSWARQAPGKGLEWVSGIYADGSATYYADSVKGRFTISRDNAKNTLYLHMNSLKPEDTALYYCAQGYSDYDRRVGGYDYWGQGTQVTVSS | binds |
| anti-TROP2 #TP2 VHH (VHH) VHH: EVQLVESGGGLAQPGGSLRLSCAASGFTFSTYAMSWARQAPGKGLEWVSGIYADGSGTYYADSVKGRFTISRDNAKNTLYLQMNSLKPEDTALYYCAQGYSDYDRRLGEYDYWGQGTQVTVSS | binds |
| anti-TROP2 #TP4 VHH (VHH) VHH: QLQLVESGGGLVQPGGSLRLSCAASGFTLDDYAMRWFRQAPGKAREGVSCISRSDGTTYYADSVKGRFTISRNNAENTVYLQMNSLKPEDTAVYYCAADSLGCNGYSDWGVDYWAKGTLVTVSS | binds |
| anti-TROP2 #TP18 VHH (VHH) VHH: QVQLVESGGGLVQPGGSLRLSCAASSSIFSIAIMGWYRQAPGKQRELVATISATDVTHYADSVKGRFTISRDDAWNAVYLQMDSLKAEDTAVYYCNSYLLQQRVPWGQGTQVTVSS | binds |
| anti-TROP2 #TP19 VHH (VHH) VHH: EVQVVESGGGLVQPGGSLRLSCAASRSVFNIAIMGWYRQAPGKQRELVASISATDVTSYADSVKGRFTISRDDAWNAVYLQMDSLKSEDTAVYYCNSYLLQQRVPWGQGTQVTVSS | binds |
| anti-TROP2 #TP15 VHH (VHH) VHH: QVQLVESGGGLVQPGGSLRLSCAVSGDIFSFYSMGWYRQAPGEQRELVAHITSGGSTHYADSVKGRFTISRDNAKNTVYLQMNSPKPEDTAVYYCNADLDYWVDSMGPYWGQGTQVTVSS | binds |
| anti-TROP2 #TP14 VHH (VHH) VHH: EVQVVESGGGLVQPGGSLRLSCAVSGFTLDWYAIGWFRQAPGKEHEGVACIDPSERSTYADPVKGRFTISRDNAKNTVHLQMNSLKPEDTAVYYCAADTLPCFFYGSMWPPPDNWGQGTQVTVSS | binds |
| anti-TROP2 #TP5 VHH (VHH) VHH: QLQLVESGGGLVQPGGSLKLSCAASGFTLDYWTIGWFRQAPGKEREGVSCISSSDGSTYYADSVKGRFTISRDNAKRTVNLQMNSLKPEDTAVYYCAAGSLGYCSRSTPQYEYDFWGQGTQVTVSS | binds |
| anti-TROP2 #TP8 VHH (VHH) VHH: QLQLVESGGGLVQPGGSLRLSCAASGFTLDYWTIGWFRQAPGKEREGVSCVSSSGGITYYADSVKGRFTISRDNEKRTVYLQMNSLKPEDTAVYYCAAGSLGYCSRSTPQYEYDYWGQGTQVTVSS | binds |
| anti-TROP2 #TP7 VHH (VHH) VHH: QLQLVESGGGLVQPGGSLRLSCAASGFSLEHWTIGWFRQAPGKEREGVSCISSSDASTYYADSVKGRFTISRDNAKKSVYLQMNSLKLEDTAVYYCAAGSLGYCSRSTPQYEYDYWGQGTQVTVSS | binds |
| anti-TROP2 #TP9 VHH (VHH) VHH: QVQLVESGGGLVQPGGSLRLSCAASGFSLDYWAIAWFRQAPGKEREGVSCSGSRGSTHYADSVKGRFTISRDNAKNTVYLQMNSLKPEDAGVYYCAVGSTLYSLTPYEYDYWGQGTQVTVSS | binds |
| anti-TROP2 #TP10 VHH (VHH) VHH: QVQLVESGGGLVQPGGSLRLSCAASGFRLDHWAIGWFRQAPGKEREGVSCSGSDESTYYADSVKGRFTISRDNAKNTVYLQMNSLKPEDTGVYYCAVGSTWYSLTPYEYDYWGQGTQVTVSS | binds |
| anti-TROP2 #TP11 VHH (VHH) VHH: QVQLVESGGGLVQPGGSLRVSCAASGFRLDYYAIGWFRQAPGKEREGVSSINYSSGSTVYADSVKGRFTISRGNAKNTVYLQMNSLKPEDTAVYYCAVGTVVTSLAPYEYDYWGQGTQVTVSS | binds |
| anti-TROP2 #TP13 VHH (VHH) VHH: EVQLVESGGGLVQPGGSLRLSCALSGFTKDYYGIGWFRQAPGKEREGVSCISVSGSSTNYADSVKGRFTISRDNAKNTVYLQMNSLKPEDTGVYYCAAAFMGSDYVVPEMSREYDYWGQGTQVTVSS | binds |

Target: T2, recombinant human TROP2 protein
Experiment: binding of TROP2 protein to binder-expressing γδ T cells

| Binder | EC50 |
| --- | --- |
| TROP2 CAR with anti-TROP2 VHH #TP14, on γδ T cells (other) EVQVVESGGGLVQPGGSLRLSCAVSGFTLDWYAIGWFRQAPGKEHEGVACIDPSERSTYADPVKGRFTISRDNAKNTVHLQMNSLKPEDTAVYYCAADTLPCFFYGSMWPPPDNWGQGTQVTVSSTTTPAPRPPTPAPTIASQPLSLRPEACRPAAGGAVHTRGLDFACDIYIWAPLAGTCGVLLLSLVITLYCKRGRKKLLYIFKQPFMRPVQTTQEEDGCSCRFPEEEEGGCELRVKFSRSADAPAYQQGQNQLYNELNLGRREEYDVLDKRRGRDPEMGGKPRRKNPQEGLYNELQKDKMAEAYSEIGMKGERRRGKGHDGLYQGLSTATKDTYDALHMQALPPR | 3.65 nM |
| TROP2 CAR with anti-TROP2 VHH #TP6, on γδ T cells (other) QLQLVESGGGLVQPGGSLRLSCAASGTLDYWTVGWFRQAPGKEREGVSCISSSDSSTYYADSVKGRFTISRDNAKNTVYLQMNSLKPEDTAVYYCAAGSLGYCSRSTPQYEYDFWGQGTQVTVSSTTTPAPRPPTPAPTIASQPLSLRPEACRPAAGGAVHTRGLDFACDIYIWAPLAGTCGVLLLSLVITLYCKRGRKKLLYIFKQPFMRPVQTTQEEDGCSCRFPEEEEGGCELRVKFSRSADAPAYQQGQNQLYNELNLGRREEYDVLDKRRGRDPEMGGKPRRKNPQEGLYNELQKDKMAEAYSEIGMKGERRRGKGHDGLYQGLSTATKDTYDALHMQALPPR | 17.7 nM |
